Data: article PMC5339220

Tests used:
CSP1 = CSP1 (UniProt P60243); test: EMSA; conditions: EMSA: 1x LightShift binding buffer, 1 ug poly(dI-dC), 2.5% glycerol, 0.05% NP-40, 5 mM Mn2+, 5 mM Zn2+, 2-4 ug protein, 1 ng probe, 20 ul, 37 C, 30 min; pH not …
[1] = biological target: T1, ComED58E D58E (Streptococcus pneumoniae D39) (UniProt A0A0H2ZLR3); test: EMSA; conditions: EMSA: 1x LightShift binding buffer, 1 ug poly(dI-dC), 2.5% glycerol, 0.05% NP-40, 5 mM Mn2+, 5 mM Zn2+, 2-4 ug protein, 1 ng probe, 20 ul, 37 C, 30 min; pH not …
T1 sequence: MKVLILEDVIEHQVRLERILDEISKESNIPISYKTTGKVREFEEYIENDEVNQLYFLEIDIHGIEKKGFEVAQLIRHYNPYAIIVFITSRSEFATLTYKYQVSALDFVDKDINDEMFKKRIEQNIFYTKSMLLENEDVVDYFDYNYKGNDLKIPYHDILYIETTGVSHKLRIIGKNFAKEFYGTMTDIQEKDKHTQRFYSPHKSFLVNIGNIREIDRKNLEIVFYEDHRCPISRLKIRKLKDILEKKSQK

“TACACATCTGCTTCTAAAATATTGTTAGAAAACGATTTGACTGTCCTGATCAATTTGTCATGTTCTTATTTCATTTTACTATATTTTTGGTTCGCGGGAAGTCTACTAAGATACTTAAAGATGCAGATAGTGAAAAAAGGTGTAGACATTACCGTAAAAAAGTGATATAATCGTAAGATGTTCAATGTATAGGTGTTAATCATGAGTAGACGTTTTAA (double strand) [C2 probe (cps promoter)]” was tested, and the binding (CSP1) was “no binding” and the binding [1] was “binds”.
